# Data reported in PMC6076278.
# Columns and labels:
# [1] = molecular target: Glutamine synthetase from Helicobacter pylori (Helicobacter pylori) (UniProt P94845); test: crystal structure; apo Hpy GS; crystals in 10% (v/v) PEG 6,000, 100 mM HEPES pH 7.0, 50 mM choline; 2.8 Å; hexamer in the asymmetric unit, dodecamer generated by two-fold symmetry
# [2] = molecular target: Glutamine synthetase from Helicobacter pylori (Helicobacter pylori) (UniProt P94845); test: crystal structure; Hpy GS mixed with 5 mM ATP, 5 mM PPT, 5 mM magnesium chloride; crystals in 2.0 M sodium formate, 100 mM sodium citrate pH 5.0; 2.9 Å; twelve subunits in the asymmetric unit
substance,measurement,setting,value
Glutamine synthetase from Helicobacter pylori (from UniProt P94845 1-481) (enzyme),stoichiometry N,[1],12
same,stoichiometry N,[2],12
